Data reported in patent US20260201389A1 (NATIONAL UNIVERSITY OF SINGAPORE, published 2026).

Experiments:
[1] = molecular target: T1, SMAD2 protein (mouse, UniProt Q62432 2-467); test: co-immunoprecipitation with anti-SMAD2 antibody from TGFβ1-stimulated mouse WT primary cardiac fibroblasts, western blot (FIG. 16D)
T1 construct: Endogenous protein in cell lysates

[2] = molecular target: T1, SMAD2 protein; test: co-immunoprecipitation with anti-FLAG antibody from NIH-3T3 lysates, western blot (FIG. 16C)

T1 sequence (Q62432 2-467 limits assumed): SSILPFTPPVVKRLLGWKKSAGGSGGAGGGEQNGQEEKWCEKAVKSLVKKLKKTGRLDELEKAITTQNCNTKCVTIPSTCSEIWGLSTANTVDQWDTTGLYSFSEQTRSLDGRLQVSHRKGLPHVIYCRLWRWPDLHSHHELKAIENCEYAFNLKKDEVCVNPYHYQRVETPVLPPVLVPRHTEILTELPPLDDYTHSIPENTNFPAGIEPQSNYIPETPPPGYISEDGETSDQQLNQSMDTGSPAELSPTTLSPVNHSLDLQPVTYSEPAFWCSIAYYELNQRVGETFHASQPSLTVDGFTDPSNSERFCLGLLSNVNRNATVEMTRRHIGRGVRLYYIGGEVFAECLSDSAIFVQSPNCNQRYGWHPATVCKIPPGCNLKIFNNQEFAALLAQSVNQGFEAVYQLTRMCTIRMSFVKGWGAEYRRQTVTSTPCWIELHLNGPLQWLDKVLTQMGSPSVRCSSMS

| binding result [1] | binding result [2] | Binder |
| --- | --- | --- |
| no binding | – | WWP2-C, endogenous in mouse WT primary cardiac fibroblasts (enzyme, UniProt Q9DBH0 440-870, looked up) MIQEPALPPGWEMKYTSEGVRYFVDHNTRTTTFKDPRPGFESGTKQGSPGAYDRSFRWKYHQFRFLCHSNALPSHVKISVSRQTLFEDSFQQIMNMKPYDLRRRLYIIMRGEEGLDYGGIAREWFFLLSHEVLNPMYCLFEYAGKNNYCLQINPASSINPDHLTYFRFIGRFIAMALYHGKFIDTGFTLPFYKRMLNKRPTLKDLESIDPEFYNSIVWIKENNLEECGLELFFIQDMEILGKVTTHELKEGGENIRVTEENKEEYIMLLTDWRFTRGVEEQTKAFLDGFNEVAPLEWLRYFDEKELELMLCGMQEIDMSDWQKNAIYRHYTKSSKQIQWFWQVVKEMDNEKRIRLLQFVTGTCRLPVGGFAELIGSNGPQKFCIDRVGKETWLPRSHTCFNRLDLPPYKSYEQLKEKLLYAIEETEGFGQE |
| – | no binding | FLAG-tagged WWP2-C (enzyme, Expressed from a plasmid in NIH-3T3 mouse fibroblasts; The position of the FLAG tag is unknown; also called WWP2-Flag isoforms; C-terminal isoform; not shown: FLAG tag) MIQEPALPPGWEMKYTSEGVRYFVDHNTRTTTFKDPRPGFESGTKQGSPGAYDRSFRWKYHQFRFLCHSNALPSHVKISVSRQTLFEDSFQQIMNMKPYDLRRRLYIIMRGEEGLDYGGIAREWFFLLSHEVLNPMYCLFEYAGKNNYCLQINPASSINPDHLTYFRFIGRFIAMALYHGKFIDTGFTLPFYKRMLNKRPTLKDLESIDPEFYNSIVWIKENNLEECGLELYFIQDMEILGKVTTHELKEGGESIRVTEENKEEYIMLLTDWRFTRGVEEQTKAFLDGFNEVAPLEWLRYFDEKELELMLCGMQEIDMSDWQKSTIYRHYTKNSKQIQWFWQVVKEMDNEKRIRLLQFVTGTCRLPVGGFAELIGSNGPQKFCIDKVGKETWLPRSHTCFNRLDLPPYKSYEQLREKLLYAIEETEGFGQE |
